Assay results taken from patent publication US20180140578A1 (University of Texas, published 2018).
Where a chain is given by its changes, count along the chain named. Names and notes keep the numbering of the source. Each block holds one binder with its values, some of them ahead of it.

What was measured:
CUL4A = biological target: T1, CUL4A (human, UniProt Q13619 1-759, limits assumed); assay: anti-FLAG co-immunoprecipitation from HCT-116 cells, western blot (FIG. 3E)
T1 construct: also called Cullin 4A
T1 sequence (Q13619 whole entry): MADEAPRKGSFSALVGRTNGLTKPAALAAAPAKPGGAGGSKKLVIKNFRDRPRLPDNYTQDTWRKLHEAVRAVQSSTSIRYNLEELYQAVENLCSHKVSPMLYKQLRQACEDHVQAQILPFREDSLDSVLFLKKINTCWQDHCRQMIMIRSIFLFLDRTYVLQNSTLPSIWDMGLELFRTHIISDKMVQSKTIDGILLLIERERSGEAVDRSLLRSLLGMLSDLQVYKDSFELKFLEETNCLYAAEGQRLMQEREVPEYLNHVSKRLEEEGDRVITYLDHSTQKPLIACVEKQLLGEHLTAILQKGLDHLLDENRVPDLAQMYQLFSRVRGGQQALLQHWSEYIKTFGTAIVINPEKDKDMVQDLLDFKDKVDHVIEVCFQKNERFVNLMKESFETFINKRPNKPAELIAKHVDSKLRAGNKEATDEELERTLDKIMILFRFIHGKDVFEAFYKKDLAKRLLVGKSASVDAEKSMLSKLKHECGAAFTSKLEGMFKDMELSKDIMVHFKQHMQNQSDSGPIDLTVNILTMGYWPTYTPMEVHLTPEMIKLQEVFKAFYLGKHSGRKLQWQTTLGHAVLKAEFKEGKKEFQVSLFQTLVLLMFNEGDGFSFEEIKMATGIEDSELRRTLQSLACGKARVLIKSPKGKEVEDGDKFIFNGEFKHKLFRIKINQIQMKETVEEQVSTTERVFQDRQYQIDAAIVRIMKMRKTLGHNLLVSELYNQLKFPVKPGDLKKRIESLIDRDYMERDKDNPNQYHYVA

CUL4B = biological target: T2, CUL4B (human, UniProt Q13620 1-913, limits assumed); assay: as above
T2 construct: also called Cullin 4B
T2 sequence (Q13620 whole entry): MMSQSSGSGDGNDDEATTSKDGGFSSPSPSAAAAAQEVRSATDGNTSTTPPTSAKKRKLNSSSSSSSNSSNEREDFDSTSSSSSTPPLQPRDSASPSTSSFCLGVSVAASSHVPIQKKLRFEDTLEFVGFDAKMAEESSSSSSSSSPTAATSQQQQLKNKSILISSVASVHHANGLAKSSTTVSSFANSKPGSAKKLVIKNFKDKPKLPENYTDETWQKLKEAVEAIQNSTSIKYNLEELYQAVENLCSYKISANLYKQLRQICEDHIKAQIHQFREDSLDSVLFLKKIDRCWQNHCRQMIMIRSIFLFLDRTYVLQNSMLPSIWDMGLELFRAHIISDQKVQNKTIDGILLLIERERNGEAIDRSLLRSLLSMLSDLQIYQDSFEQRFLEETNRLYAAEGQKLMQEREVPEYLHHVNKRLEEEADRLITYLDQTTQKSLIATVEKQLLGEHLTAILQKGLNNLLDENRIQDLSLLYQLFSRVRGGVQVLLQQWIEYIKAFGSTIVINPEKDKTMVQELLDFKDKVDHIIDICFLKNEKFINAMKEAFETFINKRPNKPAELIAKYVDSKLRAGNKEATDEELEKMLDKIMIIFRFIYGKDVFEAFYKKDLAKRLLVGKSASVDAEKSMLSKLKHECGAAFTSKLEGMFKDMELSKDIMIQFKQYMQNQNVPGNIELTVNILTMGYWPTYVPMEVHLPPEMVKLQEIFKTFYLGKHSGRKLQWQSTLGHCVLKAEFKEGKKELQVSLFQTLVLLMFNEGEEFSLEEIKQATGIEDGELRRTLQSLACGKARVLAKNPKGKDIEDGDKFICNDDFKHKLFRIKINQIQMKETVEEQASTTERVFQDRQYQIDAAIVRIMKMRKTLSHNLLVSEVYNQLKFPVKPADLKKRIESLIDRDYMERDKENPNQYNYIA

DDB1 = biological target: T3, DDB1 (human, UniProt Q16531 2-1140); assay: anti-FLAG immunopurification from HCT-116 lysate supplemented with indisulam, western blot (FIG. 4A)
T3 construct: also called Q16531_DDB1_HUMAN
T3 sequence (Q16531 2-1140 limits assumed): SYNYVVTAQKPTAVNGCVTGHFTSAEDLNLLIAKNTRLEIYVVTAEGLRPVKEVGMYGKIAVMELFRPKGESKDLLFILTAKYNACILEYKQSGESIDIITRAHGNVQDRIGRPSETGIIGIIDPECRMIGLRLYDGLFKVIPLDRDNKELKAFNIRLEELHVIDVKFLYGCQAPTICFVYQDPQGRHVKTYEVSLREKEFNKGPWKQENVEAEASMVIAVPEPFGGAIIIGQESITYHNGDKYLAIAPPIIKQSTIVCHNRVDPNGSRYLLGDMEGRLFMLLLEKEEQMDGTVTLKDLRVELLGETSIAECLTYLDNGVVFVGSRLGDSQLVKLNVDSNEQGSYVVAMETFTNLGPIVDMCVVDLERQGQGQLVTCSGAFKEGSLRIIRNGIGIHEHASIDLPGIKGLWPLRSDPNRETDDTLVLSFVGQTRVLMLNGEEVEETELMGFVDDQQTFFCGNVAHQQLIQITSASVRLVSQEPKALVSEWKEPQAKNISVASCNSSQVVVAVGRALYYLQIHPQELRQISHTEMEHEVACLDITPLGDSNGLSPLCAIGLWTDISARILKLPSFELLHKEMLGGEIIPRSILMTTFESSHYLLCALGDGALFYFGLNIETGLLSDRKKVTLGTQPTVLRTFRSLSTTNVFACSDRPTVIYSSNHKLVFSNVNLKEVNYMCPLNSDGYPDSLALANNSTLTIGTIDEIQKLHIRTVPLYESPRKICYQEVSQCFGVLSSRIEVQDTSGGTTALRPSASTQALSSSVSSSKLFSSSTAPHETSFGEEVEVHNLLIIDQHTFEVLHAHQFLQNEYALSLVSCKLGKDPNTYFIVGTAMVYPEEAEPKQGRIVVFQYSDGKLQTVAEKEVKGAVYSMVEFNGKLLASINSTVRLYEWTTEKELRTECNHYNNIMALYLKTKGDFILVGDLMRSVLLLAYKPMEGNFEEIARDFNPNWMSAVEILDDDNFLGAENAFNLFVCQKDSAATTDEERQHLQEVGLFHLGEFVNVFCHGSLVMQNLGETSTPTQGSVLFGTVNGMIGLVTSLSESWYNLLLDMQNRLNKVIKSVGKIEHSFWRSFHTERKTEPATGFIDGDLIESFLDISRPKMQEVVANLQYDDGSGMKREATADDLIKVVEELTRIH

DCAF15-3xFLAG [1] = biological target: T4, DCAF15-3xFLAG (human, UniProt Q66K64 1-600); assay: pull-down of 100 nM RBM39Δ150 P272S by DCAF15-3xFLAG on anti-FLAG beads with rising indisulam, western blot (FIG. 4C)
T4 construct: also called DDB1/DCAF15-3xFLAG; not shown: C-terminal 3xFLAG tag
T4 sequence (Q66K64 whole entry): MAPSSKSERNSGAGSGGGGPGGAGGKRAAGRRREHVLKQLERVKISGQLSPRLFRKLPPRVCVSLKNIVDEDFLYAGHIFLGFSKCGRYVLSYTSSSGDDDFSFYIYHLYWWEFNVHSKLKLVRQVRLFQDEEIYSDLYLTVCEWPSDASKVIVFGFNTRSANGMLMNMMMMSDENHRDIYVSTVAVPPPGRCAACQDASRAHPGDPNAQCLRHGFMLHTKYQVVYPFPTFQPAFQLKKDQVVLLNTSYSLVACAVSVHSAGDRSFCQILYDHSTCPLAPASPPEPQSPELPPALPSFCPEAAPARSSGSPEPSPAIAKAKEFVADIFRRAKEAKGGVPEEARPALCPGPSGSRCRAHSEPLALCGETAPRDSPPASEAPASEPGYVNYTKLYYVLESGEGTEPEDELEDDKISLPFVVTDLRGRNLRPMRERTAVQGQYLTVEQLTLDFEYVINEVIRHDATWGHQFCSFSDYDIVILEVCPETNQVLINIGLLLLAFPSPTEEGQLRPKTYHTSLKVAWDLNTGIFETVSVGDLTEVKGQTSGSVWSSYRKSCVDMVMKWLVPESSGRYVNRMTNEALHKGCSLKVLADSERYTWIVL

DCAF15-3xFLAG [2] = biological target: T4, DCAF15-3xFLAG; assay: pull-down by DCAF15-3xFLAG on anti-FLAG beads, western blot (FIG. 4C)

- binding result (CUL4A): no binding (tested: 10 µM indisulam)
- binding result (CUL4B): no binding (tested: 10 µM indisulam)
- binding result (DDB1): no binding (tested: 10 µM indisulam)
B1: RBM39 G268V-3xFLAG (other, human, UniProt Q14498 1-530, looked up)
chain: MADDIDIEAMLEAPYKKDENKLSSANGHEERSKKRKKSKSRSRSHERKRSKSKERKRSRDRERKKSKSRERKRSRSKERRRSRSRSRDRRFRGRYRSPYSGPKFNSAIRGKIGLPHSIKLSRRRSRSKSPFRKDKSPVREPIDNLTPEERDARTVFCMQLAARIRPRDLEEFFSTVGKVRDVRMISDRNSRRSKGIAYVEFVDVSSVPLAIGLTGQRVLGVPIIVQASQAEKNRAAAMANNLQKGSAGPMRLYVGSLHFNITEDMLRVIFEPFGRIESIQLMMDSETGRSKGYGFITFSDSECAKKALEQLNGFELAGRPMKVGHVTERTDASSASSFLDSDELERTGIDLGTTGRLQLMARLAEGTGLQIPPAAQQALQMSGSLAFGAVAEFSFVIDLQTRLSQQTEASALAAAASVQPLATQCFQLSNMFNPQTEEEVGWDTEIKDDVIEECNKHGGVIHIYVDKNSAQGNVYVKCPSIAAAIAAVNALHGRWFAGKMITAAYVPLPTYHNLFPDSMTATQLLVPSRR
notes: From HCT-116 cells; for the ubiquitination assay expressed from pCDNA3.1 in 293T cells; also called RBM39-3xFLAG G268V; not shown: C-terminal 3xFLAG tag

- fold higher indisulam concentration required for recruitment, against wild type RBM39Δ150 (DCAF15-3xFLAG [1]): 100 fold
B2: RBM39Δ150 P272S (other, human, UniProt Q14498 151-530, looked up)
chain: DARTVFCMQLAARIRPRDLEEFFSTVGKVRDVRMISDRNSRRSKGIAYVEFVDVSSVPLAIGLTGQRVLGVPIIVQASQAEKNRAAAMANNLQKGSAGPMRLYVGSLHFNITEDMLRGIFESFGRIESIQLMMDSETGRSKGYGFITFSDSECAKKALEQLNGFELAGRPMKVGHVTERTDASSASSFLDSDELERTGIDLGTTGRLQLMARLAEGTGLQIPPAAQQALQMSGSLAFGAVAEFSFVIDLQTRLSQQTEASALAAAASVQPLATQCFQLSNMFNPQTEEEVGWDTEIKDDVIEECNKHGGVIHIYVDKNSAQGNVYVKCPSIAAAIAAVNALHGRWFAGKMITAAYVPLPTYHNLFPDSMTATQLLVPSRR
notes: domain: RRM1, RRM2, and RRM3 domains; Sf9 expression as for RBM39Δ150

- binding result (DCAF15-3xFLAG [2]): no binding (tested: 10 µM indisulam)
B3: RBM39Δ150 E271Q (other, human, UniProt Q14498 151-530, looked up)
chain: B2 chain with E121Q, S122P
notes: domain: RRM1, RRM2, and RRM3 domains; Sf9 expression as for RBM39Δ150; also called E271Q variant of RBM39Δ150
